Data on one substance can be found in publication PMC5770381.

Holding throughout (assay): purified protein
Series [1] relates to CC1(C)S[C@@H]2[C@H](NC(=O)[C@H](N)c3ccc(O)cc3)C(=O)N2[C@H]1C(=O)O. To be noted: Tris-HCl pH 7.4, 35 °C, 20-500 μM substrate.
The subject of series [2] is C[C@@H](O)[C@H]1C(=O)N2C(C(=O)O)=C(S[C@@H]3CN[C@H](C(=O)N(C)C)C3)[C@H](C)[C@H]12. Conditions: Tris-HCl pH 7.4, 35 °C, 10-200 μM substrate.
The test system of series [3] is CO/N=C(\C(=O)N[C@@H]1C(=O)N2C(C(=O)O)=C(COC(C)=O)CS[C@H]12)c1csc(N)n1. Conditions: Tris-HCl pH 7.4, 35 °C, 10-100 μM substrate.

For the substance “ElBla2 (Erythrobacter litoralis HTCC2594)”, the Km – broadly, the substrate concentration at which the rate is half of its maximum – in series [1] came to 39 ± 9 µM; in series [2] it was 19 ± 6 µM; in series [3], 13 ± 4 µM. The kcat (in general, the maximal rate divided by the concentration of active sites) in series [1] worked out at 1.4 ± 0.1 s⁻¹; in series [2], 2.1 ± 0.2 s⁻¹; in series [3], 0.9 ± 0.1 s⁻¹. Also, the kcat/Km (usually the second-order rate constant that governs catalysis at low substrate concentration) is 40000 M⁻¹ s⁻¹ in series [1], 110000 M⁻¹ s⁻¹ in series [2] and 70000 M⁻¹ s⁻¹ in series [3].
